Measurements reported in paper PMC5309860 (2017).

B1: His-β-arrestin-1-WT [not stated] / GST-PLCγ-SH3 [human] (parent complex)
chain 1: MGDKGTRVFKKASPNGKLTVYLGKRDFVDHIDLVDPVDGVVLVDPEYLKERRVYVTLTCAFRYGREDLDVLGLTFRKDLFVANVQSFPPAPEDKKPLTRLQERLIKKLGEHAYPFTFEIPPNLPCSVTLQPGPEDTGKACGVDYEVKAFCAENLEEKIHKRNSVRLVIRKVQYAPERPGPQPTAETTRQFLMSDKPLHLEASLDKEIYYHGEPISVNVHVTNNTNKTVKKIKISVRQYADICLFNTAQYKCPVAMEEADDTVAPSSTFCKVYTLTPFLANNREKRGLALDGKLKHEDTNLASSTLLREGANREILGIIVSYKVKVKLVVSRGGLLGDLASSDVAVELPFTLMHPKPKEEPPHREVPENETPVDTNLIELDTNDDDIVFEDFARQRLKGMKDDKEEEEDGTGSPQLNNR
chain 2: TFKCAVKALFDYKAQREDELTFIKSAIIQNVEKQEGGWWRGDYGGKKQLWFPSNYVEEMVN

Variants of: B1
Experiment: GST pull down assay (quantified western blot); 5 μM GST-PLCγ-SH3, 5 μM β-arrestin-1, with GRK6pp; parent: 2.5; read off a plot

screen value [fold] | Variant
~2.6 | chain 1 P180A
~2.7 | chain 1 P121A
~1.1 | chain 1 P88A, chain 1 P89A, chain 1 P91A

Variants of: B1
Experiment: GST pull down assay (quantified western blot); 5 μM GST-PLCγ-SH3, 5 μM β-arrestin-1, without GRK6pp; parent: 1; read off a plot

screen value [fold] | Variant
~1.2 | chain 1 P180A
~1.1 | chain 1 P121A
~1.1 | chain 1 P88A, chain 1 P89A, chain 1 P91A
